In patent US20250215412A1 (NOVOZYMES A S, published 2025):
Changes are numbered by the printed parent chain. Names may count otherwise.

T1: Chryseobacterium sp-62563 deamidase polypeptide (second polypeptide, deamidase domain), wildtype (Chryseobacterium sp-62563)
T1 sequence: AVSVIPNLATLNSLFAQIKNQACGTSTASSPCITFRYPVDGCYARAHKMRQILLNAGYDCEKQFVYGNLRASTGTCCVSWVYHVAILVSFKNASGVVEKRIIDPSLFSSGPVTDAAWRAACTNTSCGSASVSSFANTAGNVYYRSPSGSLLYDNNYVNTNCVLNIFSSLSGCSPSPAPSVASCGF

B1: Chryseobacterium sp-62563 propeptide D90P (protein)
chain: NQDPNLVAKESNETAMKDFGKTVPVGIEKEDGKFKISFMVTAQPYEIKDSKENAAYISMIKTAVENETPIHVFLKANTNEIAKVDKATDPDIRYFKSVFTKEVKEENRK
B2: Chryseobacterium sp-62563 propeptide V98A (protein)
chain: B1 chain with P90D, V98A
B3: Chryseobacterium sp-62563 propeptide V98T (protein)
chain: B1 chain with P90D, V98T
B4: Chryseobacterium sp-62563 propeptide F99Y (protein)
chain: B1 chain with P90D, F99Y
B5: Chryseobacterium sp-62563 propeptide F99P (protein)
chain: B1 chain with P90D, F99P
B6: Chryseobacterium sp-62563 propeptide S97R (protein)
chain: B1 chain with P90D, S97R
B7: Chryseobacterium sp-62563 propeptide Y94I (protein)
chain: B1 chain with P90D, Y94I
B8: Chryseobacterium sp-62563 propeptide P69Q (protein)
chain: B1 chain with P69Q, P90D
B9: Chryseobacterium sp-62563 propeptide F99V (protein)
chain: B1 chain with P90D, F99V
B10: Chryseobacterium sp-62563 propeptide P69D (protein)
chain: B1 chain with P69D, P90D
B11: Chryseobacterium sp-62563 propeptide Y45R (protein)
chain: B1 chain with Y45R, P90D
B12: Chryseobacterium sp-62563 propeptide Y94T (protein)
chain: B1 chain with P90D, Y94T
B13: Chryseobacterium sp-62563 propeptide V98Q (protein)
chain: B1 chain with P90D, V98Q
B14: Chryseobacterium sp-62563 propeptide V98H (protein)
chain: B1 chain with P90D, V98H
B15: Chryseobacterium sp-62563 propeptide P69M (protein)
chain: B1 chain with P69M, P90D
B16: Chryseobacterium sp-62563 propeptide F99L (protein)
chain: B1 chain with P90D, F99L
B17: Chryseobacterium sp-62563 propeptide V98N (protein)
chain: B1 chain with P90D, V98N
B18: Chryseobacterium sp-62563 propeptide Y45I (protein)
chain: B1 chain with Y45I, P90D
B19: Chryseobacterium sp-62563 propeptide V98R (protein)
chain: B1 chain with P90D, V98R
B20: Chryseobacterium sp-62563 propeptide Y94A (protein)
chain: B1 chain with P90D, Y94A
B21: Chryseobacterium sp-62563 propeptide F99C (protein)
chain: B1 chain with P90D, F99C
B22: Chryseobacterium sp-62563 propeptide V98C (protein)
chain: B1 chain with P90D, V98C
B23: Chryseobacterium sp-62563 propeptide Y94Q (protein)
chain: B1 chain with P90D, Y94Q
B24: Chryseobacterium sp-62563 propeptide P69G (protein)
chain: B1 chain with P69G, P90D
B25: Chryseobacterium sp-62563 propeptide Y94E (protein)
chain: B1 chain with P90D, Y94E
B26: Chryseobacterium sp-62563 propeptide F95D (protein)
chain: B1 chain with P90D, F95D
B27: Chryseobacterium sp-62563 propeptide F99Q (protein)
chain: B1 chain with P90D, F99Q
B28: Chryseobacterium sp-62563 propeptide F99D (protein)
chain: B1 chain with P90D, F99D
B29: Chryseobacterium sp-62563 propeptide F99R (protein)
chain: B1 chain with P90D, F99R
B30: Chryseobacterium sp-62563 propeptide V98M (protein)
chain: B1 chain with P90D, V98M
B31: Chryseobacterium sp-62563 propeptide F95G (protein)
chain: B1 chain with P90D, F95G
B32: Chryseobacterium sp-62563 propeptide K96Y (protein)
chain: B1 chain with P90D, K96Y
B33: Chryseobacterium sp-62563 propeptide K96V (protein)
chain: B1 chain with P90D, K96V
B34: Chryseobacterium sp-62563 propeptide V98E (protein)
chain: B1 chain with P90D, V98E
B35: Chryseobacterium sp-62563 propeptide V98G (protein)
chain: B1 chain with P90D, V98G
B36: Chryseobacterium sp-62563 propeptide V98P (protein)
chain: B1 chain with P90D, V98P
B37: Chryseobacterium sp-62563 propeptide F99W (protein)
chain: B1 chain with P90D, F99W
B38: Chryseobacterium sp-62563 propeptide Y94P (protein)
chain: B1 chain with P90D, Y94P
B39: Chryseobacterium sp-62563 propeptide F99H (protein)
chain: B1 chain with P90D, F99H
B40: Chryseobacterium sp-62563 propeptide V98K (protein)
chain: B1 chain with P90D, V98K
B41: Chryseobacterium sp-62563 propeptide K96W (protein)
chain: B1 chain with P90D, K96W
B42: Chryseobacterium sp-62563 propeptide V98Y (protein)
chain: B1 chain with P90D, V98Y
B43: Chryseobacterium sp-62563 propeptide K96Q (protein)
chain: B1 chain with P90D, K96Q
B44: Chryseobacterium sp-62563 propeptide F99K (protein)
chain: B1 chain with P90D, F99K
B45: Chryseobacterium sp-62563 propeptide P69L (protein)
chain: B1 chain with P69L, P90D
B46: Chryseobacterium sp-62563 propeptide V98S (protein)
chain: B1 chain with P90D, V98S
B47: Chryseobacterium sp-62563 propeptide R93P (protein)
chain: B1 chain with P90D, R93P
B48: Chryseobacterium sp-62563 propeptide K96T (protein)
chain: B1 chain with P90D, K96T
B49: Chryseobacterium sp-62563 propeptide F99I (protein)
chain: B1 chain with P90D, F99I
B50: Chryseobacterium sp-62563 propeptide Y45M (protein)
chain: B1 chain with Y45M, P90D

molecular target: T1, Chryseobacterium sp-62563 deamidase polypeptide (second polypeptide, deamidase domain), wildtype (Chryseobacterium sp-62563); assay: cell-based or functional assay

| Leakage activity [%] | Relative activity of maturated deamidase (% initial rate) | NanoDSF thermal unfolding temperature [° C.] | Binder |
| --- | --- | --- | --- |
| 0 | 55 |  | B1 |
|  | 68 |  | B2 |
|  | 70 |  | B3 |
|  | 85 |  | B4 |
|  | 33 |  | B5 |
|  | 30 |  | B6 |
| 0 | 60 |  | B7 |
|  | > 100 | 74.1 | B8 |
|  | > 100 |  | B9 |
|  | 82 | 70.6 | B10 |
|  |  | 78.1 | B11 |
| 0 | > 100 |  | B12 |
|  | > 100 |  | B13 |
|  | 54 |  | B14 |
|  | 67 | 79.1 | B15 |
|  | 46 |  | B16 |
|  | > 100 |  | B17 |
|  | > 100 | 76.4 | B18 |
|  | > 100 |  | B19 |
| 0 | 72 |  | B20 |
| 0 | 52 |  | B21 |
|  | 65 |  | B22 |
| 0 |  |  | B23 |
|  | 35 | 77 | B24 |
| 0 |  |  | B25 |

| Leakage activity [%] | Relative activity of maturated deamidase (% initial rate) | NanoDSF thermal unfolding temperature [° C.] | Binder |
| --- | --- | --- | --- |
| 7 | 44 |  | B26 |
| 4 | 48 |  | B27 |
| 9 | 69 |  | B28 |
| 0 | 76 |  | B29 |
|  | 41 |  | B30 |
| 0 | 91 |  | B31 |
|  | 73 |  | B32 |
|  | 41 |  | B33 |
|  | > 100 |  | B34 |
|  | > 100 |  | B35 |
| 2 | > 100 |  | B36 |
|  | 81 |  | B37 |
| 3 | 76 | 75.2 | B38 |
|  | > 100 |  | B39 |
|  | > 100 |  | B40 |
|  | 51 |  | B41 |
| 0 | 31 |  | B42 |
|  | > 100 |  | B43 |
| 4 | > 100 | 75.4 | B44 |
|  | 43 | 81.5 | B45 |
|  | 98 |  | B46 |
| 4 | > 100 |  | B47 |
|  | 34 |  | B48 |
|  | 33 |  | B49 |
|  | 40 | 79 | B50 |
